US12098176B2, “Keratin BD-4, preparation method, and pharmaceutical composition and use thereof” (Institute of Materia Medica, Chinese Academy of Medical …, priority 2019, dated 2024)

Columns and labels:
Type in all cases: in vivo, mouse
[1] = tested on: phenol red excretion in mice; test: Expectorant test, phenol red excretion method in mice; conditions: for Phenol red excretion: X ± SEM
Protocol: Experimental example 5 The pharmacodynamic test of protein BD-4 (Example 4 protein) on the expectorant of phenol red excretion method in mice.
• Solvent control group; • Mucosultan 30 mg/kg group; • Protein BD-4, 20 mg/kg group, 50 mg/kg group. Method: Model Preparation and Administration:
The animals were fasted and watered 16 hours before the experiment. Orally administered Mucosultan and different doses of protein BD-4 (administration volume 10 ml/kg) in groups, and the solvent control group was given the same volume of distilled water. One hour later, 2.5% phenol red solution was injected intraperitoneally, Kill the mouse by removing the neck after 30 minutes. Take the trachea from below the thyroid cartilage to the branch of the trachea. Put the trachea into 3 ml 5% NaHCO3 solution and let it stand for 3 hours. Take 1 ml of the supernatant and centrifuge at 3000 rpm for 5 minutes. Measure and record the absorbance at 546 nm. According to the standard curve of phenol red, the excretion of phenol red was calculated.
Record the time point of oral administration, the time point of intraperitoneal injection of 2.5% phenol red solution, and the time point of tracheal extraction respectively; The absorbance of each group of samples was measured by the microplate reader at 546 nm, Calculate the excretion of phenol red according to the standard curve of phenol red. Calculate the mean and standard error of the data in each group, use TTEST to compare the solvent control group with other groups, and P<0.05 is considered as a significant difference.

[2] = tested on: acetic acid writhing of ICR mice; test: Acetic acid writhing test in ICR mice; conditions: for Number of twists / Writhing latency: 0.6% acetic acid i.p., within 15 minutes
Protocol: Experimental example 7 The pharmacodynamic test of protein BD-4 (Example 4 protein) on acetic acid writhing in ICR mice. Animals: male ICR mice; Drugs and reagents: aspirin, physiological saline, glacial acetic acid, protein BD-4. Experiment Grouping:
One day after the experimental animals adapt to the environment, Aspirin 300 mg/kg, protein BD-4 50 mg/kg, 200 mg/kg were given orally one hour in advance, and the administration volume was 10 ml/kg; Then, 0.6% acetic acid solution was injected into the abdominal cavity, and the latency period (seconds) and frequency of writhing in the animal was observed within 15 minutes.
Calculate the mean and standard error of the data in each group. Compared with the model group by TTEST, P<0.05 was considered as statistically different.
0.6% acetic acid solution was injected into the abdominal cavity of mice, which caused deep and large area and long-term painful stimulation, causing the mice to writhe (the abdomen was contracted into an “S” shape, the trunk and hind legs were stretched, the buttocks were raised and the hips Row). The incubation time and the number of times the mice began to writhe were used as the pain response index to determine whether the test sample had analgesic effect. […] Compared with the model group, P<0.05, which is statistically significant.

[3] = tested on: PTZ-induced epilepsy in mice; test: Pentylenetetrazole (PTZ) induced epilepsy in mice; conditions: for Grade IV seizure rate / mortality rate: 10 mice; for Grade IV seizure rate / mortality rate / Number of deaths / Number of Grade IV cases: PTZ 65 mg/kg i.p.; for Number of deaths / Number of Grade IV cases: of 10 mice; for Number of Grade IV cases: 15 min observation; for Level III onset latency / Grade IV onset latency: mean ± SEM; for Grade IV onset latency: no grade IV attack recorded as 900 s
Protocol: Experiment Grouping: • Model group; • Retigabine 60 mg/kg group; • Protein BD-4, 50 mg/kg group, 200 mg/kg group; Method: Model Preparation and Administration:
Administer once in the afternoon the day before modeling, On the day of modeling, intraperitoneal injection of PTZ-65 mg/kg (modeling agent) 1 hour after gavage of the test drug, the positive drug can be administered once half an hour before modeling. Continue to observe for 15 minutes after injection of PTZ.
Observation index: 1) Seizure condition: Onset time of grade III to grade VI; 2) Death situation
Onset level: Refer to Racine grading standard: Level 0: No response; Grade I: manifested as twitching of facial muscles or the corners of the mouth; Level II: Can nod; Grade III: twitching of one limb; Grade IV: Rigidity or body twitching; Grade V: Generalized epilepsy (Generalized tonic seizures).
Count the number of seizures and deaths in each group of mice in the experiment; Level III and IV incubation period. The incubation period of mice that have not attacked to grade IV is recorded as the maximum of 900 seconds. Chi-square test was used for statistics of the number of cases. Calculate the mean and standard error of the incubation period. Use TTEST to compare the model group with other groups, and P<0.05 is considered as a significant difference.

[4] = tested on: mice cough induced by ammonia water; test: Antitussive test, cough induced by ammonia water in mice; conditions: for Incubation period: cough latency; for Incubation period / Number of coughs: X ± SEM; for Number of coughs: within 2 minutes
Protocol: Experimental example 6 The effect of protein BD-4 (Example 4 protein) on the antitussive effect of the cough induced by ammonia water in mice. Animals: male ICR mice; Drugs and reagents: dextromethorphan hydrobromide, ammonia, 0.2% CMC-Na, protein BD-4; Apparatus: Compressed nebulizer (403T type), balance (XS105DU type). Experiment Grouping: • Solvent control group; • Dextromethorphan 15 mg/kg group; • Protein BD-4, 20 mg/kg group, 50 mg/kg group. Method: Model Preparation and Administration:
Dextromethorphan and different doses of protein BD-4 (administration volume 10 ml/kg) were given orally in groups, and the solvent control group was given the same volume of distilled water. One hour later, it was put into a sealed box and atomized 10% ammonia water for 10 seconds, and then observed and recorded the incubation period of cough in mice and the number of coughs in 2 minutes.
Record the time point of oral administration, the time point of atomization experiment, the incubation period of mice cough and the number of coughs within 2 minutes, respectively. The incubation period of cough refers to the number of seconds from the start of the atomization of ammonia to the occurrence of cough. The performance of coughing in mice is based on contraction of their abdominal muscles (breast contraction) and opening their mouths at the same time. Calculate the mean and standard error of each group of data, use TTEST to compare the model group with other groups, and P<0.05 is considered as a significant difference.

B1: BD-4: recombinant keratin, amino acid sequence SEQ ID NO: 1, expressed in E. coli; the protein of Example 4 was tested (protein, listed as Bos taurus)
chain: MSYSCCLPNLSFRSSCSSRPCVPSSCCGTTLPGACNIPANVGSCNWFCEGSFNGSEKETMQFLNDRLASYLEKVRQLERDNAELESRILERSQQQEPLVCPNYQSYFRTIEELQQKILCSKSENARLVVQIDNAKLASDDFRTKYETEVSLRQLVEADLNGLRRILDELTLCKSDLEARVESLKEELICLKQNHEQEVNTLRSQLGDRLNVEVDAAPTVDLNRVLNETRAQYEALVETNRRDVEEWYIRQTEELNKQVVSSSEQLQSYQAEIIELRRTVNALEVELQAQHNLRDSLENTLTETEARYSCQLAQVQGLIGNVESQLAEIRSDLERQNQEYQVLLDVRARLECEINTYRGLLDSEDCKLPCNPCATTNACERPCISNPCVSRARCGPCNTFVH
**Q.** With B1 as the molecule, how does the Phenol red excretion ([1]; 20 mg/kg oral) read?
**A.** 0.898 ± 0.076 µg/mL

**Q.** What about the “Phenol red excretion vs solvent control group” value ([1]; 20 mg/kg, P<0.05) of the same molecule?
**A.** significantly increased

**Q.** What about the Phenol red excretion ([1]; 50 mg/kg oral) of the same molecule?
**A.** 0.775 ± 0.101 µg/mL

**Q.** What about the Number of twists ([2]; 50 mg/kg oral) of the same molecule?
**A.** 16.9 ± 3.7 times

**Q.** And the Writhing latency ([2]; 50 mg/kg oral)?
**A.** 315.2 ± 66.3 s

**Q.** What about the “Number of writhing times vs model group” value ([2]; 50 mg/kg, P<0.05) of the same molecule?
**A.** significantly reduce the number of writhing times

**Q.** What about the Number of twists ([2]; 200 mg/kg oral) of the same molecule?
**A.** 25.1 ± 3.3 times

**Q.** What about the Writhing latency ([2]; 200 mg/kg oral) of the same molecule?
**A.** 220.1 ± 16.6 s

**Q.** What about the “Epilepsy grade III incubation period, comparison with model group” value ([3]; 50 mg/kg) of the same molecule?
**A.** statistically different from the model group

**Q.** What about the “Grade IV seizure rate” value ([3]; 50 mg/kg gavage) of the same molecule?
**A.** 80%

**Q.** What about the mortality rate ([3]; 50 mg/kg gavage) of the same molecule?
**A.** 10%

**Q.** What about the Number of deaths ([3]; 50 mg/kg gavage) of the same molecule?
**A.** 1

**Q.** And the “Number of Grade IV cases” value ([3]; 50 mg/kg gavage)?
**A.** 8

**Q.** And the “Level III onset latency” value ([3]; 50 mg/kg)?
**A.** 91 ± 12 s

**Q.** And the “Grade IV onset latency” value ([3]; 50 mg/kg)?
**A.** 308 ± 103 s

**Q.** And the “Epilepsy grade III incubation period, comparison with model group” value ([3]; 200 mg/kg)?
**A.** statistically different from the model group

**Q.** And the “Grade IV seizure rate” value ([3]; 200 mg/kg gavage)?
**A.** 70%

**Q.** What about the mortality rate ([3]; 200 mg/kg gavage) of the same molecule?
**A.** 0

**Q.** What about the Number of deaths ([3]; 200 mg/kg gavage) of the same molecule?
**A.** 0

**Q.** And the “Number of Grade IV cases” value ([3]; 200 mg/kg gavage)?
**A.** 7

**Q.** And the “Level III onset latency” value ([3]; 200 mg/kg)?
**A.** 89 ± 8 s

**Q.** And the “Grade IV onset latency” value ([3]; 200 mg/kg)?
**A.** 493 ± 113 s

**Q.** And the Incubation period ([4]; 20 mg/kg oral)?
**A.** 34.0 ± 2.4 s

**Q.** And the Number of coughs ([4]; 20 mg/kg oral)?
**A.** 55.9 ± 3.5

**Q.** And the “Cough incubation period vs solvent control group” value ([4]; 20 mg/kg, P<0.05)?
**A.** significant improvement

**Q.** And the “Number of coughs vs solvent control group” value ([4]; 20 mg/kg, P<0.05)?
**A.** significant improvement

**Q.** What about the Incubation period ([4]; 50 mg/kg oral) of the same molecule?
**A.** 33.2 ± 3.9 s

**Q.** And the Number of coughs ([4]; 50 mg/kg oral)?
**A.** 62.1 ± 3.7

**Q.** And the “Number of coughs vs solvent control group” value ([4]; 50 mg/kg, P<0.05)?
**A.** significant improvement
